Key:
[1] = biological target: protease-activated RNA polymerase (PA-RNAP) including the HCV protease substrate (UniProt P00806)
[2] = test system: TEV protease wild-type substrate sequence ENLYFQSA
[3] = biological target: protease-activated RNA polymerase (PA-RNAP) including the TEV protease substrate (UniProt P00806)
[4] = test system: target substrate sequence ENLYFESA

Sequence of protease-activated RNA polymerase (PA-RNAP) including the HCV protease substrate (P00806 whole entry, looked up): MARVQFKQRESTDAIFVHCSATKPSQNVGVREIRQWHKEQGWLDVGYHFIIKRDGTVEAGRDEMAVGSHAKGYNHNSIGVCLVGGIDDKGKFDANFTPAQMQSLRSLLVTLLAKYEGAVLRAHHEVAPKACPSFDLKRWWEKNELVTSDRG
Sequence of protease-activated RNA polymerase (PA-RNAP) including the TEV protease substrate (P00806 whole entry, looked up): as above

Substance	Western blot of PA-RNAP sensor activation (proteolysis) [1]	cleavage of substrate sequence [2]	Western blot of PA-RNAP sensor activation (proteolysis) [3]	cleavage of substrate sequence [4]
hepatitis C virus (HCV) protease, constitutively active construct that includes the NS4a cofactor peptide	the PA-RNAP sensor is proteolyzed to a smaller band of anticipated molecular weight only in the presence of a cognate protease that can cleave the peptide sequence in each PA-RNAP linker			
tobacco etch virus (TEV) protease, expressed as MBP-TEV fusion protein		Wild-type TEV protease cleaves the substrate sequence ENLYFQSA (SEQ ID NO: 24)	the PA-RNAP sensor is proteolyzed to a smaller band of anticipated molecular weight only in the presence of a cognate protease that can cleave the peptide sequence in each PA-RNAP linker	does not cleave the target substrate sequence ENLYFESA (SEQ ID NO: 25)

Source: patent US20210238569A1
